Data published in the supplement of paper PMC11246515.
± gives the standard deviation of the averaged measurements.

Test: total protein half-life in vivo (active degradation + dilution); higher = more stable protein
[1] = E. coli NCM3722 delta-clpP delta-lon delta-hslV, growth: N-lim chemostat, doubling time 6 h
[2] = E. coli NCM3722 delta-clpP, growth: N-lim chemostat, doubling time 6 h
[3] = E. coli NCM3722 delta-hslV, growth: N-lim chemostat, doubling time 6 h
[4] = E. coli NCM3722 delta-lon, growth: N-lim chemostat, doubling time 6 h
[5] = E. coli NCM3722 delta-smpB, growth: N-lim chemostat, doubling time 6 h
[6] = wild type E. coli NCM3722, growth: C-lim chemostat, doubling time 3 h
[7] = wild type E. coli NCM3722, growth: C-lim chemostat, doubling time 6 h
[8] = wild type E. coli NCM3722, growth: C-lim chemostat, doubling time 12 h
[9] = wild type E. coli NCM3722, growth: N-lim chemostat, doubling time 6 h
[10] = wild type E. coli NCM3722, growth: N-lim chemostat, doubling time 12 h
[11] = wild type E. coli NCM3722, growth: P-lim chemostat, doubling time 6 h
[12] = wild type E. coli NCM3722, growth: P-lim chemostat, doubling time 12 h

Row | Sequence | total protein half-life in vivo [1] [h] | total protein half-life in vivo [2] [h] | total protein half-life in vivo [3] [h] | total protein half-life in vivo [4] [h] | total protein half-life in vivo [5] [h] | total protein half-life in vivo [6] [h] | total protein half-life in vivo [7] [h] | total protein half-life in vivo [8] [h] | total protein half-life in vivo [9] [h] | total protein half-life in vivo [10] [h] | total protein half-life in vivo [11] [h] | total protein half-life in vivo [12] [h]
1 | MSTLEQTIGNTPLVKLQRMGPDNGSEVWLKLEGNNPAGSVKDRAALSMIVEAEKRGEIKPGDVLIEATSGNTGIALAMIAALKGYRMKLLMPDNMSQERRAAMRAYGAELILVTKEQGMEGARDLALEMANRGEGKLLDQFNNPDNPYAHYTTTGPEIWQQTGGRITHFVSSMGTTGTITGVSRFMREQSKPVTIVGLQPEEGSSIPGIRRWPTEYLPGIFNASLVDEVLDIHQRDAENTMRELAVREGIFCGVSSGGAVAGALRVAKANPDAVVVAIICDRGDRYLSTGVFGEEHFSQGAGI | 6.17 ± 1.7 | 4.5 ± 0.098 | 4.55 ± 0.61 | 4.81 ± 0.087 | 4.19 ± 0.058 | 2.95 ± 0.34 | 6.01 ± 0.21 | 10.2 ± 0.28 | 4.66 ± 0.086 | 7.44 ± 0.39 | 5.64 ± 0.13 | 11.6 ± 0.56
2 | MSTPDFSTAENNQELANEVSCLKAMLTLMLQAMGQADAGRVMLKMEKQLALIEDETQAAVFSKTVKQIKQAYRQ [P0AD07] |  |  |  |  |  |  |  |  |  |  |  | 7.56 ± 2.9
3 | MSTPLQGIKVLDFTGVQSGPSCTQMLAWFGADVIKIERPGVGDVTRHQLRDIPDIDALYFTMLNSNKRSIELNTKTAEGKEVMEKLIREADILVENFHPGAIDHMGFTWEHIQEINPRLIFGSIKGFDECSPYVNVKAYENVAQAAGGAASTTGFWDGPPLVSAAALGDSNTGMHLLIGLLAALLHREKTGRGQRVTMSMQDAVLNLCRVKLRDQQRLDKLGYLEEYPQYPNGTFGDAVPRGGNAGGGGQPGWILKCKGWETDPNAYIYFTIQEQNWENTCKAIGKPEWITDPAYSTAHARQPHIFDIFAEIEKYTVTIDKHEAVAYLTQFDIPCAPVLSMKEISLDPSLRQSGSVVEVEQPLRGKYLTVGCPMKFSAFTPDIKAAPLLGEHTAAVLQELGYSDDEIAAMKQNHAI |  |  |  |  |  |  |  |  |  |  | 5.48 | 
4 | MSTPRQILAAIFDMDGLLIDSEPLWDRAELDVMASLGVDISRRNELPDTLGLRIDMVVDLWYARQPWNGPSRQEVVERVIARAISLVEETRPLLPGVREAVALCKEQGLLVGLASASPLHMLEKVLTMFDLRDSFDALASAEKLPYSKPHPQVYLDCAAKLGVDPLTCVALEDSVNGMIASKAARMRSIVVPAPEAQNDPRFVLADVKLSSLTELTAKDLLG | 4.76 ± 0.9 | 5.14 ± 0.84 | 4.544 ± 0.045 | 5.444 ± 0.011 | 4.27 ± 0.18 | 2.99 ± 0.3 | 5.48 ± 0.35 | 12.1 ± 3 | 4.47 ± 0.14 | 8.91 ± 1.3 | 5.65 ± 0.52 | 12.3 ± 0.28
5 | MSTQLDPTQLAIEFLRRDQSNLSPAQYLKRLKQLELEFADLLTLSSAELKEEIYFAWRLGVH | 5.63 ± 0.47 | 3.08 ± 0.39 |  | 2.3 | 1.29 |  |  | 1.9 | 0.632 | 1.08 |  | 0.514
6 | MSTQYETQGYTINNAGRRLVVDPITRIEGHMRCEVNINDQNVITNAVSCGTMFRGLEIILQGRDPRDAWAFVERICGVCTGVHALASVYAIEDAIGIKVPDNANIIRNIMLATLWCHDHLVHFYQLAGMDWIDVLDALKADPRKTSELAQSLSSWPKSSPGYFFDVQNRLKKFVEGGQLGIFRNGYWGHPQYKLPPEANLMGFAHYLEALDFQREIVKIHAVFGGKNPHPNWIVGGMPCAINIDESGAVGAVNMERLNLVQSIITRTADFINNVMIPDALAIGQFNKPWSEIGTGLSDKCVLSYGAFPDIANDFGEKSLLMPGGAVINGDFNNVLPVDLVDPQQVQEFVDHAWYRYPNDQVGRHPFDGITDPWYNPGDVKGSDTNIQQLNEQERYSWIKAPRWRGNAMEVGPLARTLIAYHKGDAATVESVDRMMSALNLPLSGIQSTLGRILCRAHEAQWAAGKLQYFFDKLMTNLKNGNLATASTEKWEPATWPTECRGVGFTEAPRGALGHWAAIRDGKIDLYQCVVPTTWNASPRDPKGQIGAYEAALMNTKMAIPEQPLEILRTLHSFDPCLACSTHVLGDDGSELISVQVR [P0ACD8] | 4.51 ± 0.84 |  |  |  |  |  |  |  |  |  |  | 
7 | MSTTHNVPQGDLVLRTLAMPADTNANGDIFGGWLMSQMDIGGAILAKEIAHGRVVTVRVEGMTFLRPVAVGDVVCCYARCVQKGTTSVSINIEVWVKKVASEPIGQRYKATEALFKYVAVDPEGKPRALPVE [P0A8Z0] | 5.03 ± 0.4 | 5.16 ± 0.9 | 5.24 ± 0.38 | 5.86 ± 0.43 | 5 ± 0.31 | 2.93 ± 0.13 | 5.72 ± 0.64 | 11.1 ± 0.23 | 5.6 ± 0.096 | 10.1 ± 0.37 | 5.8 ± 0.5 | 13.3 ± 0.14
8 | MSTVTITDLARENVRNLTPYQSARRLGGNGDVWLNANEYPTAVEFQLTQQTLNRYPECQPKAVIENYAQYAGVKPEQVLVSRGADEGIELLIRAFCEPGKDAILYCPPTYGMYSVSAETIGVECRTVPTLDNWQLDLQGISDKLDGVKVVYVCSPNNPTGQLINPQDFRTLLELTRGKAIVVADEAYIEFCPQASLAGWLAEYPHLAILRTLSKAFALAGLRCGFTLANEEVINLLMKVIAPYPLSTPVADIAAQALSPQGIVAMRERVAQIIAEREYLIAALKEIPCVEQVFDSETNYILARFKASSAVFKSLWDQGIILRDQNKQPSLSGCLRITVGTREESQRVIDALRAEQV | 3.92 ± 0.55 | 3.15 ± 0.066 | 3.41 ± 0.045 | 3.73 ± 0.54 | 3.535 ± 0.032 | 3.02 ± 0.27 | 5.38 ± 0.12 | 9.87 ± 1.3 | 3.247 ± 0.012 | 4.98 ± 0.15 | 5.32 ± 0.39 | 10.9 ± 0.23
9 | MSVENIVNINESNLQQVLEQSMTTPVLFYFWSERSQHCLQLTPILESLAAQYNGQFILAKLDCDAEQMIAAQFGLRAIPTVYLFQNGQPVDGFQGPQPEEAIRALLDKVLPREEELKAQQAMQLMQESNYTDALPLLKDAWQLSNQNGEIGLLLAETLIALNRSEDAEAVLKTIPLQDQDTRYQGLVAQIELLKQAADTPEIQQLQQQVAENPEDAALATQLALQLHQVGRNEEALELLFGHLRKDLTAADGQTRKTFQEILAALGTGDALASKYRRQLYALLY | 4.51 ± 0.3 | 4.61 ± 0.092 | 5.26 ± 0.61 | 6.044 ± 0.054 | 4.75 ± 0.35 | 3.1 ± 0.24 | 6.038 ± 0.01 | 11 ± 0.52 | 5.25 ± 0.16 | 8.64 ± 0.25 | 5.31 ± 0.12 | 11.9 ± 0.69
